Laboratory results from patent US20230002480A1.

Key:
Assay in all cases: cell-based or functional assay
[1] = target: HIV-1 Env of pseudovirus 1006_11_C3_1601 (HIV-1)
[2] = target: HIV-1 Env of pseudovirus 1012_11_TC21_3257 (HIV-1)
[3] = target: HIV-1 Env of pseudovirus 1394C9G1(Rev-) (HIV-1)
[4] = target: HIV-1 Env of pseudovirus 249M B10 (HIV-1)
[5] = target: HIV-1 Env of pseudovirus 62357_14_D3_4589 (HIV-1)
[6] = target: HIV-1 Env of pseudovirus 6240_08_TA5_4622 (HIV-1)
[7] = target: HIV-1 Env of pseudovirus BF1266.431a (HIV-1)
[8] = target: HIV-1 Env of pseudovirus CAP45.2.00.G3 (HIV-1)
[9] = target: HIV-1 Env of pseudovirus CNE17 (HIV-1)
[10] = target: HIV-1 Env of pseudovirus CNE19 (HIV-1)
[11] = target: HIV-1 Env of pseudovirus CNE30 (HIV-1)
[12] = target: HIV-1 Env of pseudovirus CNE58 (HIV-1)
[13] = target: HIV-1 Env of pseudovirus Ce703010054_2A2 (HIV-1)
[14] = target: HIV-1 Env of pseudovirus Du156.12 (HIV-1)
[15] = target: HIV-1 Env of pseudovirus Du422.1 (HIV-1)
[16] = target: HIV-1 Env of pseudovirus HIV-16055-2.3 (HIV-1)
[17] = target: HIV-1 Env of pseudovirus Q259.d2.17 (HIV-1)
[18] = target: HIV-1 Env of pseudovirus Q842.d12 (HIV-1)
[19] = target: HIV-1 Env of pseudovirus RHPA4259.7 (HIV-1)
[20] = target: HIV-1 Env of pseudovirus SC422661.8 (HIV-1)
[21] = target: HIV-1 Env of pseudovirus ZM109F.PB4 (HIV-1)
[22] = target: HIV-1 Env of pseudovirus ZM53M.PB12 (HIV-1)

## N49P9 (antibody)
[1]
  IC50: 0.076 µg/mL
  IC80: 0.231 µg/mL
  MPI: 100
[2]
  IC50: 0.194 µg/mL
  IC80: 0.591 µg/mL
  MPI: 100
[3]
  IC50: > 50 µg/mL
  IC80: > 50 µg/mL
  MPI: 40
[4]
  IC50: 0.203 µg/mL
  IC80: 1.41 µg/mL
  MPI: 97
[5]
  IC50: 0.074 µg/mL
  IC80: 0.307 µg/mL
  MPI: 100
[6]
  IC50: 0.308 µg/mL
  IC80: 1.26 µg/mL
  MPI: 100
[7]
  IC50: 0.154 µg/mL
  IC80: 0.519 µg/mL
  MPI: 99
[8]
  IC50: 0.294 µg/mL
  IC80: 1.99 µg/mL
  MPI: 98
[9]
  IC50: 0.364 µg/mL
  IC80: 1.7 µg/mL
  MPI: 100
[10]
  IC50: 0.031 µg/mL
  IC80: 0.136 µg/mL
  MPI: 100
[11]
  IC50: 0.259 µg/mL
  IC80: 0.693 µg/mL
  MPI: 100
[12]
  IC50: 0.03 µg/mL
  IC80: 0.081 µg/mL
  MPI: 100
[13]
  IC50: 0.187 µg/mL
  IC80: 0.898 µg/mL
  MPI: 98
[14]
  IC50: 0.043 µg/mL
  IC80: 0.13 µg/mL
  MPI: 100
[15]
  IC50: > 50 µg/mL
  IC80: > 50 µg/mL
  MPI: 17
[16]
  IC50: 0.077 µg/mL
  IC80: 0.274 µg/mL
  MPI: 100
[17]
  IC50: 0.807 µg/mL
  IC80: > 50 µg/mL
  MPI: 74
[18]
  IC50: 0.019 µg/mL
  IC80: 0.057 µg/mL
  MPI: 100
[19]
  IC50: 0.023 µg/mL
  IC80: 0.078 µg/mL
  MPI: 100
[20]
  IC50: 0.241 µg/mL
  IC80: 0.691 µg/mL
  MPI: 100
[21]
  IC50: 0.075 µg/mL
  IC80: 0.349 µg/mL
  MPI: 99
[22]
  IC50: 0.362 µg/mL
  IC80: 1.14 µg/mL
  MPI: 100

## N49P9.1 (antibody)
[1]
  IC50: 0.135 µg/mL
  IC80: 0.448 µg/mL
  MPI: 100
[2]
  IC50: 0.382 µg/mL
  IC80: 1.45 µg/mL
  MPI: 100
[3]
  IC50: > 50 µg/mL
  IC80: > 50 µg/mL
  MPI: 6
[4]
  IC50: 0.305 µg/mL
  IC80: 1.64 µg/mL
  MPI: 96
[5]
  IC50: 0.227 µg/mL
  IC80: 1.09 µg/mL
  MPI: 99
[6]
  IC50: 0.716 µg/mL
  IC80: 2.55 µg/mL
  MPI: 100
[7]
  IC50: 0.808 µg/mL
  IC80: 3.14 µg/mL
  MPI: 95
[8]
  IC50: 1.72 µg/mL
  IC80: 19.6 µg/mL
  MPI: 88
[9]
  IC50: 0.251 µg/mL
  IC80: 1.23 µg/mL
  MPI: 100
[10]
  IC50: 0.033 µg/mL
  IC80: 0.146 µg/mL
  MPI: 100
[11]
  IC50: 0.271 µg/mL
  IC80: 0.971 µg/mL
  MPI: 100
[12]
  IC50: 0.027 µg/mL
  IC80: 0.074 µg/mL
  MPI: 100
[13]
  IC50: 0.433 µg/mL
  IC80: 3.18 µg/mL
  MPI: 96
[14]
  IC50: 0.066 µg/mL
  IC80: 0.252 µg/mL
  MPI: 100
[15]
  IC50: > 50 µg/mL
  IC80: > 50 µg/mL
  MPI: 17
[16]
  IC50: 0.102 µg/mL
  IC80: 0.362 µg/mL
  MPI: 100
[17]
  IC50: > 50 µg/mL
  IC80: > 50 µg/mL
  MPI: 48
[18]
  IC50: 0.027 µg/mL
  IC80: 0.075 µg/mL
  MPI: 100
[19]
  IC50: 0.021 µg/mL
  IC80: 0.066 µg/mL
  MPI: 100
[20]
  IC50: 0.127 µg/mL
  IC80: 0.468 µg/mL
  MPI: 100
[21]
  IC50: 0.116 µg/mL
  IC80: 0.497 µg/mL
  MPI: 95
[22]
  IC50: 0.447 µg/mL
  IC80: 1.29 µg/mL
  MPI: 100

## N49P19 (antibody)
[1]
  IC50: 0.4 µg/mL
  IC80: 1.33 µg/mL
  MPI: 100
[2]
  IC50: 0.204 µg/mL
  IC80: 0.895 µg/mL
  MPI: 100
[3]
  IC50: > 50 µg/mL
  IC80: > 50 µg/mL
  MPI: 17
[4]
  IC50: > 50 µg/mL
  IC80: > 50 µg/mL
  MPI: 39
[5]
  IC50: 37.4 µg/mL
  IC80: > 50 µg/mL
  MPI: 51
[6]
  IC50: 2.1 µg/mL
  IC80: 7.52 µg/mL
  MPI: 100
[7]
  IC50: > 50 µg/mL
  IC80: > 50 µg/mL
  MPI: 15
[8]
  IC50: > 50 µg/mL
  IC80: > 50 µg/mL
  MPI: 5
[9]
  IC50: > 50 µg/mL
  IC80: > 50 µg/mL
  MPI: 30
[10]
  IC50: 20.7 µg/mL
  IC80: > 50 µg/mL
  MPI: 59
[11]
  IC50: 1.27 µg/mL
  IC80: 4.28 µg/mL
  MPI: 100
[12]
  IC50: > 50 µg/mL
  IC80: > 50 µg/mL
  MPI: 43
[13]
  IC50: > 50 µg/mL
  IC80: > 50 µg/mL
  MPI: 0
[14]
  IC50: 2.17 µg/mL
  IC80: 17 µg/mL
  MPI: 87
[15]
  IC50: > 50 µg/mL
  IC80: > 50 µg/mL
  MPI: 30
[16]
  IC50: > 50 µg/mL
  IC80: > 50 µg/mL
  MPI: 30
[17]
  IC50: > 50 µg/mL
  IC80: > 50 µg/mL
  MPI: 11
[18]
  IC50: 0.182 µg/mL
  IC80: 0.601 µg/mL
  MPI: 100
[19]
  IC50: > 50 µg/mL
  IC80: > 50 µg/mL
  MPI: 42
[20]
  IC50: 0.425 µg/mL
  IC80: 1.42 µg/mL
  MPI: 100
[21]
  IC50: 0.282 µg/mL
  IC80: 2.66 µg/mL
  MPI: 92
[22]
  IC50: 1.19 µg/mL
  IC80: 4.14 µg/mL
  MPI: 100
